The assay has as its target α5β1 integrin on mouse embryonic fibronectin-null fibroblasts (mouse) (UniProt P11688). The assay is described as follows: cell-based or functional assay.

α5β1 integrin on mouse embryonic fibronectin-null fibroblasts (mouse), sequence (P11688 45-1053, chain 1 of 2): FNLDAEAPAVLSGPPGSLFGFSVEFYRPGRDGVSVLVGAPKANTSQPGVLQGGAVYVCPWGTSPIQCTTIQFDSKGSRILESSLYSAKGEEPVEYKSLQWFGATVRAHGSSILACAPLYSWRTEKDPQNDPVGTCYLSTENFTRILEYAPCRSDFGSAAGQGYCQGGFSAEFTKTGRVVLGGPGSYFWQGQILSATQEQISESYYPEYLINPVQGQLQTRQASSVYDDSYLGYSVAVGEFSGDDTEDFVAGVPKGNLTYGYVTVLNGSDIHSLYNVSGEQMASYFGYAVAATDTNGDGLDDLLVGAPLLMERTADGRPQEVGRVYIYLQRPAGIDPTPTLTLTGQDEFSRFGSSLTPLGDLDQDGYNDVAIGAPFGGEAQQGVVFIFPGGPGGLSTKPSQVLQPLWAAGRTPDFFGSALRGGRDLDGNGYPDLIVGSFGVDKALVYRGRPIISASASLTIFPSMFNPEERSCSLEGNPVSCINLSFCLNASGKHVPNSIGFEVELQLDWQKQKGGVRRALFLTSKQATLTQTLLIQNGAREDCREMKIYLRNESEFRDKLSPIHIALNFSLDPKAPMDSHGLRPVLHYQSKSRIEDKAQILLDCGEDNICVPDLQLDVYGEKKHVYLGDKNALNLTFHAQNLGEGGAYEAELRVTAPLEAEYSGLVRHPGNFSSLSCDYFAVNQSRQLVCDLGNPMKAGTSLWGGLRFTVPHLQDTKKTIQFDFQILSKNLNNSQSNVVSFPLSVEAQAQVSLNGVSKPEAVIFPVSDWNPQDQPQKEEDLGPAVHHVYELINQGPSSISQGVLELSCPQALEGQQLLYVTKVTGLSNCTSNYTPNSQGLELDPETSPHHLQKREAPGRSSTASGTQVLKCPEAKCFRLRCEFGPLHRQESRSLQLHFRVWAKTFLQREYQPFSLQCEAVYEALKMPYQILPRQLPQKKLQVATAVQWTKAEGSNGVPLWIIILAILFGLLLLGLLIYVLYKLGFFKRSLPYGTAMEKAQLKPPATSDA
α5β1 integrin on mouse embryonic fibronectin-null fibroblasts (mouse), sequence (P09055 21-798, chain 2 of 2, further chain): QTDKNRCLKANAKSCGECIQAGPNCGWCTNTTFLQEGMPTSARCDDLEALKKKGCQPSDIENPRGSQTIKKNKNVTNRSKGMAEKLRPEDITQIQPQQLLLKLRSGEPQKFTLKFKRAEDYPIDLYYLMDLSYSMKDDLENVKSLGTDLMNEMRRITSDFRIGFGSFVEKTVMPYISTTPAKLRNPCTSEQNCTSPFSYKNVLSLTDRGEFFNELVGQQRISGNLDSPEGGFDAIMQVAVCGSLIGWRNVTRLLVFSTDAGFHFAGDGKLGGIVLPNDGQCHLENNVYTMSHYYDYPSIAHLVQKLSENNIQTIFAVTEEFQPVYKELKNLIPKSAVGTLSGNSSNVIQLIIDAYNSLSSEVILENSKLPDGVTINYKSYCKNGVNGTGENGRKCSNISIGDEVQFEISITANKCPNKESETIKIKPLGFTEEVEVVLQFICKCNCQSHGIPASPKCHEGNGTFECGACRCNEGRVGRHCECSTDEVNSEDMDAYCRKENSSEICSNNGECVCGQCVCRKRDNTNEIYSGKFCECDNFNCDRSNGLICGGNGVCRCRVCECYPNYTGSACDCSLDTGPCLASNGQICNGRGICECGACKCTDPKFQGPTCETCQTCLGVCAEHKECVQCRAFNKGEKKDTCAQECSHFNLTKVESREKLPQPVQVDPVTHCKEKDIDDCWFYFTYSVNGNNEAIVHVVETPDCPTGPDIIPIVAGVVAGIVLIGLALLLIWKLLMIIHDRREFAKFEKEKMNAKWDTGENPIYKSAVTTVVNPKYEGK
Human plasma fibronectin, P02751 32-2477 (other; Alexa^488 label where used as FN^488), sequence (P02751 other isoform, or with tags, fused parts or gaps): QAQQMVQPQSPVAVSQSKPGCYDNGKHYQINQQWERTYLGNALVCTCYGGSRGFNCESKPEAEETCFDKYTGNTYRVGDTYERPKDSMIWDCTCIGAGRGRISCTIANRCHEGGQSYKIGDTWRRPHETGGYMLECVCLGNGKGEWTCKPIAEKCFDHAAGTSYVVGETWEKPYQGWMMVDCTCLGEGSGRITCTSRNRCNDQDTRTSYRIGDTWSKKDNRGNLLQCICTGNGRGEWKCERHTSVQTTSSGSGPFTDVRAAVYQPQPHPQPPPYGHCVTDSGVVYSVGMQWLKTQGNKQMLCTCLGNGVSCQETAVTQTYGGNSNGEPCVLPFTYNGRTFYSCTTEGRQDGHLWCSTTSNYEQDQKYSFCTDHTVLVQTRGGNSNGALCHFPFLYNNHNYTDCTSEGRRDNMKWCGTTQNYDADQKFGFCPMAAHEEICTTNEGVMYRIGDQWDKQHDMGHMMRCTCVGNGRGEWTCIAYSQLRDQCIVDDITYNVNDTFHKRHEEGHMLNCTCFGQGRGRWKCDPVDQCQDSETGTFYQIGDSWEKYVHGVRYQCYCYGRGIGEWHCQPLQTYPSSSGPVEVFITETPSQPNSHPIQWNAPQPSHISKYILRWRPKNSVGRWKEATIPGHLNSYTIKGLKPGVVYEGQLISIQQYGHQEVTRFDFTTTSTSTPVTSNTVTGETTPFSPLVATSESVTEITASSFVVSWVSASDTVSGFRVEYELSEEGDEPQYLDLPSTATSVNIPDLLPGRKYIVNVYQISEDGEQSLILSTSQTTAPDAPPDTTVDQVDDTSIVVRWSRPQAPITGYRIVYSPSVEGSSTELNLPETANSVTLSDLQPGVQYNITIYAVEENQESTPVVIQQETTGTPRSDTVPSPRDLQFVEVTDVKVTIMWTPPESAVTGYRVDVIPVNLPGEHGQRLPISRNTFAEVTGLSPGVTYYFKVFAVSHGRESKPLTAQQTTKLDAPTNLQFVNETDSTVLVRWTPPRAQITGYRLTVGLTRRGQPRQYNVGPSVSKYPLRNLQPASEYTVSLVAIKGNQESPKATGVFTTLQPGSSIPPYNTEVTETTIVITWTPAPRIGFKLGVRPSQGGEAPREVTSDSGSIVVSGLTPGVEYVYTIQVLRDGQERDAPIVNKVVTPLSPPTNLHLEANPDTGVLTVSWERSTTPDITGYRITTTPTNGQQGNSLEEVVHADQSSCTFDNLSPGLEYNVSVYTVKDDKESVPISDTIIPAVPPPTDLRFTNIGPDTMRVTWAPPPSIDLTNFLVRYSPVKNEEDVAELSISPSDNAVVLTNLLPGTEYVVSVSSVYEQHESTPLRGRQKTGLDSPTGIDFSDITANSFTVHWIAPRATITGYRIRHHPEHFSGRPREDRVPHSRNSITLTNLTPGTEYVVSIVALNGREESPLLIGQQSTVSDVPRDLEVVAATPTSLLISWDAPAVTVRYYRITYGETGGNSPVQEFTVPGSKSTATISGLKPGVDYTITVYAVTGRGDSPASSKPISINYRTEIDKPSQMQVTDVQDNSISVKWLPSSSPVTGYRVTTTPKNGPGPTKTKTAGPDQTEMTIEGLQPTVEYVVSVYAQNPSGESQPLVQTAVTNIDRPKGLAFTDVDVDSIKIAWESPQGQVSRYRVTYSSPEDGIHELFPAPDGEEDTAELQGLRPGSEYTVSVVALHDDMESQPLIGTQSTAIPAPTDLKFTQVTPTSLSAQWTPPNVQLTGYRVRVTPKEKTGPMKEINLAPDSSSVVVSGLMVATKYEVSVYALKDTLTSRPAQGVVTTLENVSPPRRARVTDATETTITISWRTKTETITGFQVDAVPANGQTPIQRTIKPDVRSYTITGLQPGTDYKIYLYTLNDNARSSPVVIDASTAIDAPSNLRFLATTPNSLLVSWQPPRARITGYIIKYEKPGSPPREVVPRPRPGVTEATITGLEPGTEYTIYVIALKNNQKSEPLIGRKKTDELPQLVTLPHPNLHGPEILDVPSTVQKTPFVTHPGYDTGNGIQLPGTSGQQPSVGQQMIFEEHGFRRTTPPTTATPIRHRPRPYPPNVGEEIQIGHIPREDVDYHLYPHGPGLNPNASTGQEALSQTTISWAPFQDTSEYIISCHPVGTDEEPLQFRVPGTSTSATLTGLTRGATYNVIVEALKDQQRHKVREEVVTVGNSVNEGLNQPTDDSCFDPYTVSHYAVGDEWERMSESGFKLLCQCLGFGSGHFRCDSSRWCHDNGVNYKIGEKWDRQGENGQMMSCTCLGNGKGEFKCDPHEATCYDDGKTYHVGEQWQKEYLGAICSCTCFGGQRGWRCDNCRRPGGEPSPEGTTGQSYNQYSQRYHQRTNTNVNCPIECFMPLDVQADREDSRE

“Human plasma fibronectin, P02751 32-2477 (other; Alexa^488 label where used as FN^488)” yielded a reduction of FN-null MEF adhesion to full-length fibronectin by α5 integrin-blocking antibody of 53% and a reduction of FN-null MEF adhesion to full-length fibronectin by β1 integrin-blocking antibody of 71.3%.

Source of the values: US20150283214A1.
